According to paper PMC3961674:

Target: variant 92787 (77405 N-terminally fused to wild-type ubiquitin carrying an S57C substitution) (human) (UniProt P0CG48)
Experiment: affinity chromatography; 92787 coupled to SulfoLink resin (1 ml columns); 200 μg of 67B89 spiked into 2 ml of PBS, NHDF cell lysate or serum, washed with PBS pH 7.4, eluted with PBS pH 2.2; fractions on SDS-PAGE

Sequence of 67B89 (ED-B domain of fibronectin flanked by its N-terminal domains 6 and 7 and C-terminal domains 8 and 9) (P02751 1080-1541): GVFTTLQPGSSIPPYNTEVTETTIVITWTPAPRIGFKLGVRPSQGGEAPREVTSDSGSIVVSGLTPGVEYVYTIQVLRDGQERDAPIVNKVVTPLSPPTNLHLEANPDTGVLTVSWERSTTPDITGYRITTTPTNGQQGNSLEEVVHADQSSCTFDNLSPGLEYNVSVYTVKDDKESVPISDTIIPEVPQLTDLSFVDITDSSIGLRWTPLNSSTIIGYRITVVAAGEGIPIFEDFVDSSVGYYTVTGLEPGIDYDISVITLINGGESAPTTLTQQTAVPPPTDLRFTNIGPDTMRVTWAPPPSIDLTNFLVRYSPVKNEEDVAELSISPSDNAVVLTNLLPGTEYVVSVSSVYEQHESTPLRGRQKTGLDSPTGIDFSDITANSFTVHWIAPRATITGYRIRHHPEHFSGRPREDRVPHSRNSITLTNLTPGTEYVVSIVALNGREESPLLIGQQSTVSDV

percent of applied 67B89 recovered from the 92787 resin: > 85%
Substance: 67B89 (ED-B domain of fibronectin flanked by its N-terminal domains 6 and 7 and C-terminal domains 8 and 9) (from UniProt P02751-7 1080-1541) (domain or fragment)
